Reference: patent US20260174875A1 (Novo Nordisk A/S, priority 2023, published 2026)
Numbered stars: 1 amine (or outer) side, 2 acyl side, 3 side chain; on linkers, the order of the positions; unused ones are H or OH. Square brackets hold non-standard residues; d marks the D form. Side chains are listed from the residue outwards. * marks the point of attachment. C20 diacid = O=C(O)CCCCCCCCCCCCCCCCCCC(=O)*; C18 diacid = O=C(O)CCCCCCCCCCCCCCCCC(=O)*; γGlu = O=C(O)[C@H](CCC(=O)[*:2])N[*:1]; AEEA = NCCOCCOCC(=O)O; Aib = CC(C)(N)C(=O)O

T1: human GIP receptor (human, UniProt P48546 22-466)
T1 sequence (looked up): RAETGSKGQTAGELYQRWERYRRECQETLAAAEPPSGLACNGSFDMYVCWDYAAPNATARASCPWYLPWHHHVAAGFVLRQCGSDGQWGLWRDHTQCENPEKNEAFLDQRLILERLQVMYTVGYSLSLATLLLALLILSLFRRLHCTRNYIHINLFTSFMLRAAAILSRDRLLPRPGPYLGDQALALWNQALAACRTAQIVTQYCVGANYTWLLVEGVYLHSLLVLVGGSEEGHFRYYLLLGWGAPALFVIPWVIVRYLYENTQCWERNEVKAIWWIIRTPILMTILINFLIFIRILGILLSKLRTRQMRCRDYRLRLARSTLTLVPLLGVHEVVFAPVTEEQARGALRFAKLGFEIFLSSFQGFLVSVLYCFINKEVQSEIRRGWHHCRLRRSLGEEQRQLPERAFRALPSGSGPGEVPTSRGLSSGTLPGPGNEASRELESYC

T2: human amylin-3(a) receptor (human, UniProt P30988 25-474; O60896 24-148)
T2 sequence (looked up) 1: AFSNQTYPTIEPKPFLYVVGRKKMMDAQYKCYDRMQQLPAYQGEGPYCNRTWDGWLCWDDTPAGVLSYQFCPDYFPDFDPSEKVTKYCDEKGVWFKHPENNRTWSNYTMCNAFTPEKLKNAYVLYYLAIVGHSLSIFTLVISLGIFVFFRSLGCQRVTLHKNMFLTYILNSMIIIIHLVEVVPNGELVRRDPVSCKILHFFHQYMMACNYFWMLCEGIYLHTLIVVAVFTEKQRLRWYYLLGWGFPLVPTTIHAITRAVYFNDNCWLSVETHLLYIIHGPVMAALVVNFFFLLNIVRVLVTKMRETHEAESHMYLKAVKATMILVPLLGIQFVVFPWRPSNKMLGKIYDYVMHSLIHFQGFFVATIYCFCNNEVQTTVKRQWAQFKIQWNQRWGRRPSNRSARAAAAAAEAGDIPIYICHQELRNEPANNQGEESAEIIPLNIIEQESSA
T2 sequence (looked up) 2: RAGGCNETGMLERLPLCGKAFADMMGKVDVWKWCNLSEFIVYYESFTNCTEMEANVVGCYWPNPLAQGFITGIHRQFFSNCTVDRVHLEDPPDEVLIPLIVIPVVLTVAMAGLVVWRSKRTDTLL

B1: Compound 78 (peptide)
peptide: H[Aib]HGTFTSDYSILLEEQAAREFIEWLLAGGPSSGAGQAPGQAPGASHLSTAQTQRLSAK([AEEA-AEEA-γGlu-C18 diacid])LHRLATLPRTETGSGSP-NH2
B2: Compound 75 (peptide)
peptide: H[Aib]HGTFTSDYSILLEEQAAREFIEWLLAGGPSGGEASHLSTAQTQRLSAELHK([AEEA-AEEA-γGlu-C18 diacid])LATLPRTETGSGSP-NH2
B3: Compound 76 (peptide)
peptide: Y[Aib]EGTFTSDYSILLEEQAAREFIEWLLAGGPSSGAGQAPGQAPGASHLSTAQTQRLSAELHRLATLPK([AEEA-AEEA-γGlu-C20 diacid])TETGSGSP-NH2
B4: Compound 86 (peptide)
peptide: H[Aib]HGTFTSDYSILLEEQAAREFIEWLLAGGPSK([AEEA-AEEA-γGlu-C18 diacid])GAPPPSGGGASELSTAALGRLSAELHRLATLPRTETGSGSP-NH2
B5: Compound 79 (peptide)
peptide: Y[Aib]EGTFTSDYSILLEEQAAREFIEWLLAGGPSSGEASHLSTAQTQRLSAK([AEEA-AEEA-γGlu-C18 diacid])LHRLATLPRTETGSGSP-NH2
B6: Compound 74 (peptide)
peptide: Y[Aib]EGTFTSDYSILLEEQAAREFIEWLLAGGPSGGEASHLSTAQTQRLSAELHK([AEEA-AEEA-γGlu-C18 diacid])LATLPRTETGSGSP-NH2
B7: Compound 84 (peptide)
peptide: H[Aib]HGTFTSDYSILLEEQAAREFIEWLLAGGPSSGEASHLSTAQTQRLSAELHRLATLPK([AEEA-AEEA-γGlu-C18 diacid])TETGSGSP-NH2
B8: Compound 77 (peptide)
peptide: Y[Aib]EGTFTSDYSILLEEQAAREFIEWLLAGGPSSGAGQAPGQAPLASHLSTAQTQRLSAELHK([AEEA-AEEA-γGlu-C20 diacid])LATLPRTETGSGSP-NH2
B9: Compound 82 (peptide)
peptide: H[Aib]HGTFTSDYSILLEEQAAREFIEWLLAGGPSSGEASHLSTAQTQRLSAK([AEEA-AEEA-γGlu-C18 diacid])LHRLATLPRTETGSGSP-NH2
B10: Compound 83 (peptide)
peptide: H[Aib]HGTFTSDYSILLEEQAAREFIEWLLAGGPSSGEASHLSTAQTQRLSAELHRLK([AEEA-AEEA-γGlu-C18 diacid])TLPRTETGSGSP-NH2
B11: Compound 80 (peptide)
peptide: Y[Aib]EGTFTSDYSILLEEQAAREFIEWLLAGGPSSGEASHLSTAQTQRLSAELHRLK([AEEA-AEEA-γGlu-C18 diacid])TLPRTETGSGSP-NH2
B12: Compound 71 (peptide)
peptide: H[Aib]HGTFTSDYSILLEEQAAREFIEWLLAGGPSRGAPPPSGGGEASHLSTQTQGRLSAELHK([AEEA-AEEA-γGlu-C18 diacid])LATLPRTETGSGSP-NH2
B13: Compound 72 (peptide)
peptide: Y[Aib]EGTFTSDYSILLEEQAAREFIEWLLAGGPSRGAPPPSGGGEASHLSTQTQGRLSAELHK([AEEA-AEEA-γGlu-C18 diacid])LATLPRTETGSGSP-NH2
B14: Compound 73 (peptide)
peptide: H[Aib]HGTFTSDYSILLEEQAAREFIEWLLAGGPSK([AEEA-AEEA-γGlu-C18 diacid])GEASQLSTAALGRLSAELHRLATLPRTETGSGSP-NH2
B15: Compound 70 (peptide)
peptide: H[Aib]HGTFTSDYSILLEEQAAREFIEWLLAGGPSRGAPPPSGGGEASELSTAALGRLSAELHK([AEEA-AEEA-γGlu-C18 diacid])LATLPRTETGSGSP-NH2
B16: Compound 81 (peptide)
peptide: Y[Aib]EGTFTSDYSILLEEQAAREFIEWLLAGGPSSGEASHLSTAQTQRLSAELHRLATLPK([AEEA-AEEA-γGlu-C18 diacid])TETGSGSP-NH2
B17: Compound 85 (peptide)
peptide: H[Aib]HGTFTSDYSILLEEQAAREFIEWLLAGGPSSGEASHLSTAQTQRLSAELHK([AEEA-AEEA-γGlu-C18 diacid])LATLPRTETGSGAP-NH2

These binders were tested against T3, human GLP-1 receptor (human, UniProt P43220 24-463) (assay: cell-based or functional assay).

| hGLP-1R Potency, no HSA, EC50 [pM] | Binder |
| --- | --- |
| 4.03 pM | B1 |
| 3.66 pM | B2 |
| 19.9 pM | B3 |
| 6.69 pM | B4 |
| 38.7 pM | B5 |
| 29.8 pM | B6 |
| 3.31 pM | B7 |
| 19.7 pM | B8 |
| 3.45 pM | B9 |
| 2.3 pM | B10 |
| 24.8 pM | B11 |
| 3.34 pM | B12 |
| 13.1 pM | B13 |
| 4.55 pM | B14 |
| 3.48 pM | B15 |
| 16 pM | B16 |
| 3.52 pM | B17 |

Each binder was assayed against T1, human GIP receptor (assay: cell-based or functional assay).

| hGIPR Potency, no HSA, EC50 [pM] | Binder |
| --- | --- |
| 3.49 pM | B1 |
| 2.65 pM | B2 |
| 2.82 pM | B3 |
| 5.11 pM | B4 |
| 4.7 pM | B5 |
| 2.51 pM | B6 |
| 3 pM | B7 |
| 2.53 pM | B8 |
| 3.7 pM | B9 |
| 2.92 pM | B10 |
| 4.01 pM | B11 |
| 2.77 pM | B12 |
| 2.12 pM | B13 |
| 4.98 pM | B14 |
| 5.89 pM | B15 |
| 3.31 pM | B16 |
| 2.71 pM | B17 |

What follows are binders tested against T2, human amylin-3(a) receptor (assay: cell-based or functional assay).

| hAMYR3 Potency, no HSA, EC50 [pM] | Binder |
| --- | --- |
| 1.83 pM | B1 |
| 2.49 pM | B2 |
| 3.11 pM | B3 |
| 3.31 pM | B4 |
| 3.53 pM | B5 |
| 2.73 pM | B6 |
| 4.41 pM | B7 |
| 3.13 pM | B8 |
| 3.26 pM | B9 |
| 2.9 pM | B10 |
| 3.23 pM | B11 |
| 8.66 pM | B12 |
| 6.57 pM | B13 |
| 1.99 pM | B14 |
| 4.53 pM | B15 |
| 4.07 pM | B16 |
| 4.4 pM | B17 |

Biological target: T3, human GLP-1 receptor
Assay: cell-based or functional assay
Remark: another data set of the same source

| hGLP-1R Potency, 1% HSA, EC50 [pM] | Binder |
| --- | --- |
| 17.8 pM | B1 |
| 25.2 pM | B2 |
| 63.6 pM | B3 |
| 130 pM | B4 |
| 168 pM | B5 |
| 141 pM | B6 |
| 25.9 pM | B7 |
| 51.4 pM | B8 |
| 24.2 pM | B9 |
| 9.89 pM | B10 |
| 111 pM | B11 |
| 18.4 pM | B12 |
| 41.7 pM | B13 |
| 54.1 pM | B14 |
| 18.4 pM | B15 |
| 51.4 pM | B16 |
| 30.3 pM | B17 |

Biological target: T1, human GIP receptor
Assay: cell-based or functional assay
Remark: another data set of the same source

| hGIPR Potency, 1% HSA, EC50 [pM] | Binder |
| --- | --- |
| 10.4 pM | B1 |
| 11.9 pM | B2 |
| 11.1 pM | B3 |
| 122 pM | B4 |
| 24.7 pM | B5 |
| 18.7 pM | B6 |
| 11.6 pM | B7 |
| 13.4 pM | B8 |
| 19.1 pM | B9 |
| 13.6 pM | B10 |
| 20.2 pM | B11 |
| 9.28 pM | B12 |
| 9.79 pM | B13 |
| 96.5 pM | B14 |
| 19.1 pM | B15 |
| 15.8 pM | B16 |
| 14.6 pM | B17 |

Biological target: T2, human amylin-3(a) receptor
Assay: cell-based or functional assay
Remark: another data set of the same source

| hAMYR3 Potency, 1% HSA, EC50 [pM] | Binder |
| --- | --- |
| 17.1 pM | B1 |
| 110 pM | B2 |
| 430 pM | B3 |
| 58.4 pM | B4 |
| 53.4 pM | B5 |
| 134 pM | B6 |
| 175 pM | B7 |
| 382 pM | B8 |
| 38 pM | B9 |
| 45.7 pM | B10 |
| 62.4 pM | B11 |
| 274 pM | B12 |
| 589 pM | B13 |
| 61.5 pM | B14 |
| 59.4 pM | B15 |
| 188 pM | B16 |
| 250 pM | B17 |
